Assay results published in article PMC12858062 (PLOS Pathogens, 2026).

Legend:
Test in all cases: far-Western, overlay or dot blot; western blot: non-reduced lysate of P. falciparum NF54 iGP2 stage V gametocytes separated by SDS-PAGE, probed with 0.1 µg/mL antibodies for 1 h at RT; HRP anti-human IgG
Details in all cases: one partner purified
[1] = target: A4-Fc (anti-Pfs48/45 nanobody A4 fused to hinge and Fc of human IgG1) (alpaca)
[2] = target: F6-Fc (anti-Pfs48/45 nanobody F6 fused to hinge and Fc of human IgG1) (alpaca)
[3] = target: C7-Fc (anti-Pfs48/45 nanobody C7 fused to hinge and Fc of human IgG1) (alpaca)
[4] = target: C1-Fc (anti-Pfs48/45 nanobody C1 fused to hinge and Fc of human IgG1) (alpaca)
[5] = target: H4-Fc (anti-Pfs48/45 nanobody H4 fused to hinge and Fc of human IgG1) (alpaca)
[6] = target: D4-Fc (anti-Pfs48/45 nanobody D4 fused to hinge and Fc of human IgG1) (alpaca)
[7] = target: D3-Fc (anti-Pfs48/45 nanobody D3 fused to hinge and Fc of human IgG1) (alpaca)
[8] = target: G3-Fc (anti-Pfs48/45 nanobody G3 fused to hinge and Fc of human IgG1) (alpaca)
[9] = target: B2-Fc (anti-Pfs48/45 nanobody B2 fused to hinge and Fc of human IgG1) (alpaca)
[10] = target: C3-Fc (anti-Pfs48/45 nanobody C3 fused to hinge and Fc of human IgG1) (alpaca)

Measured: binding result

B1: Full-length Pfs48/45 from P. falciparum NF54 iGP2 stage V gametocytes (natural protein)
chain: NNDFCKPSSLNSEISGFIGYKCNFSNEGVHNLKPDMRERRSIFCTIHSYFIYDKIRLIIPKKSSSPEFKILPEKCFQKVYTDYENRVETDISELGLIEYEIEENDTNPNYNERTITISPFSPKDIEFFCFCDNTEKVISSIEGRSAMVHVRVLKYPHNILFTNLTNDLFTYLPKTYNESNFVSNVLEVELNDGELFVLACELINKKCFQEGKEKALYKSNKIIYHKNLTIFKAPFYVTSKDVNTECTCKFKNNNYKIVLKPKYEKKVIHGCNFSSNVSSKHTFTDSLDISLVDDSAHISCNVHLSEPKYNHLVGLNCPGDIIPDCFFQVYQPESEELEPSNIVYLDSQINIGDIEYYEDAEGDDKIKLFGIVGSIPKTTSFTCICKKDKKSAYMTVTID
binds: all assays above
